Source: patent CN116063478A (BEIJING SHUNYUANTIAN BIOLOGICAL PRODUCTS CO LTD, dated 2023)

Biological target: 重组人Bromodomain结构域结合蛋白4(BRD4,区域49-170aa)(Biovision，货号:7643-100) (human, UniProt O60885 49-170)
Experiment: BLI (Fortebio Octet), binding kinetics; format not stated

- Kd: 1.07 nM
B1: BRD4-3F14单抗 (antibody, V domains shown)
VH: VKPGGSLKLSCAASRGWVDPYRMSWVRQTPDKRLEWVAIQITGHDFDYYPDSVKGRFTISRDQDKQTLYLQMSSLKSEDTAMYYCLGPKAVKHLELWGQGTTVTVS
VL: DLVMTQTAPSVPVTPGESVSISCRSTAWWYVWWMLWQLYWFLQRPGQSPQLLIYVYHNLASGVPDRFSGSGSGTAFTLRISRVEAEDVGVYYCWHFPRHKCSFGSGTKLEIK
